Patent US20030203447A1 (XOMA TECHNOLOGY, published 2003)

T1: Ep-CAM on the surface of HT-29 human colorectal carcinoma cells (human, UniProt P16422 24-314)
T1 construct: also called Epithelial Cell Adhesion Molecule; Ep-CAM-expressing HT-29 cells
T1 sequence: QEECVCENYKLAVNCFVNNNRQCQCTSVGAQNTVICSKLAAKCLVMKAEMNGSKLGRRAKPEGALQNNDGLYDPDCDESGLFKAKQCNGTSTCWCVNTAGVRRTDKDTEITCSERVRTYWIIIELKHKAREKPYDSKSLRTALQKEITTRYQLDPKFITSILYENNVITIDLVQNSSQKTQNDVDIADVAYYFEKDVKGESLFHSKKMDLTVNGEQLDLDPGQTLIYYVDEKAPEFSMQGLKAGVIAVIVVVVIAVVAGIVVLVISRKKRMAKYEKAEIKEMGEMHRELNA


Columns and labels:
[1] = target: T1, Ep-CAM on the surface of HT-29 human …; assay: competition with 125I-labelled chimeric ING-1 on HT-29 cells
Excerpt: (§1) Vectors constructed according to Example 6 encoding human engineered ING-1 light and heavy chain genes, for example, pING1937 (low risk human engineered ING-1) and pING1944 (low plus moderate risk human engineered ING-1) were linearized by XbaI and used to transfect serum-free adapted CHO—K1 followed by selection of G418-resistant transfectants. Protein was purified from shake flask culture supernatants by passage over a protein A column. To evaluate the binding activity of the produced immunoglobulin polypeptides, competition binding assays with the human carcinoma cell line HT-29 were performed. This colorectal carcinoma cell line expresses a molecule known as Ep-CAM on its surface. Ep-CAM is recognized by immunoglobulin polypeptides having the antigen binding specificity of the mouse-human chimeric ING-1 antibody produced by cell line HB 9812 as deposited with the ATCC.
(§2) HTG29 cells were grown to confluency (˜2×10⁵ cells/well) in 96 well plates. Mouse-human chimeric ING-1 was labeled with Na¹²⁵I (Iodo-gen®, Pierce). The competition conditions included in a 100 μl assay volume, 0.1 nM labeled mouse-human chimeric ING-1, 2-fold serial dilutions of unlabeled immunoglobulin polypeptides, for example, as produced by cells transfected with pING1937 and pING1944. […] Labeled cells were removed with NaOH and counted. […]

[2] = target: T1, Ep-CAM on the surface of HT-29 human …; assay: competition binding on HT-29 cells
Excerpt: as §1, §2

[3] = target: T1, Ep-CAM on the surface of HT-29 human …; assay: competition with iodinated low risk ING-1 on HT-29 cells

Row | Binder | binding result [1] | binding result [3] | further results
1 | human engineered (low risk) ING-1 (antibody, human IgG1, kappa, It carries 6 low risk changes in VL and 13 low risk changes in VH; also called ING-1 (heMab); low risk human engineered ING-1) VL: DIVMTQSALSNPVTLGESGSISCRSSKSLLHSNGITYLYWYLQKPGQSPQLLIYQMSNRASGVPDRFSSSGSGTDFTLKISRVEAEDVGVYYCAQNLELPRTFGQGTKLEMKRTVAAPSVFIFPPSDEQLKSGTASVVCLLNNFYPREAKVQWKVDNALQSGNSQESVTEQDSKDSTYSLSSTLTLSKADYEKHKVYACEVTHQGLSSPVTKSFNRGEC VH: not shown | binds |  | 
2 | human engineered (low plus moderate risk) ING-1 (antibody, human IgG1, kappa, Whole IgG built like pING1937 (human kappa and gamma-1 constant regions); It carries 10 low plus moderate risk changes in VL and 20 in VH; also called product of pING1944) VL: DIVMTQSPLSLPVTPGEPGSISCRSSKSLLHSNGITYLYWYLQKPGQSPQLLIYQMSNRASGVPDRFSSSGSGTDFTLKISRVEAEDVGVYYCAQNLELPRTFGQGTKLEMKRTVAAPSVFIFPPSDEQLKSGTASVVCLLNNFYPREAKVQWKVDNALQSGNSQESVTEQDSKDSTYSLSSTLTLSKADYEKHKVYACEVTHQGLSSPVTKSFNRGEC VH: not shown |  |  | binding result [2]: binds
3 | modified ING-1 with low plus moderate risk light chain and low risk heavy chain (antibody, human IgG1, kappa) VL: DIVMTQSPLSLPVTPGEPGSISCRSSKSLLHSNGITYLYWYLQKPGQSPQLLIYQMSNRASGVPDRFSSSGSGTDFTLKISRVEAEDVGVYYCAQNLELPRTFGQGTKLEMKRTVAAPSVFIFPPSDEQLKSGTASVVCLLNNFYPREAKVQWKVDNALQSGNSQESVTEQDSKDSTYSLSSTLTLSKADYEKHKVYACEVTHQGLSSPVTKSFNRGEC VH: not shown |  | binds | 
4 | modified ING-1 with low risk light chain and low plus moderate risk heavy chain (antibody, human IgG1, kappa) VL: DIVMTQSALSNPVTLGESGSISCRSSKSLLHSNGITYLYWYLQKPGQSPQLLIYQMSNRASGVPDRFSSSGSGTDFTLKISRVEAEDVGVYYCAQNLELPRTFGQGTKLEMKRTVAAPSVFIFPPSDEQLKSGTASVVCLLNNFYPREAKVQWKVDNALQSGNSQESVTEQDSKDSTYSLSSTLTLSKADYEKHKVYACEVTHQGLSSPVTKSFNRGEC VH: not shown |  | binds | 
5 | mouse-human chimeric ING-1 (antibody, human IgG1, kappa, V domains shown, Variable regions of mouse antibody Br-1 with human constant regions; also called mouse-human chimeric ING-1 antibody produced by cell line HB 9812) VH: QIQLVQSGPELKKPGETVKISCKASGYTFTKYGMNWVKQAPGKGLKWMGWINTYTEEPTYGDDFKGRFAFSLETSASTANLQINNLKSEDTATYFCARFGSAVDYWGQGTSVTVSS VL: DIVMTQAAFSNPVTLGTSGSISCRSSKSLLHSNGITYLYWYLQKPGQSPQLLIYQMSNLASGVPDRFSSSGSGTDFTLRISRVEAEDVGVYYCAQNLELPRTFGGGTKLEMKR | binds |  | 
